Results from patent US20030109431A1.
One block for each molecule: values may come before it. Where no end group is shown, it is not given here. The star is where a group is joined. Biotin = O=C1N[C@H]2[C@H](CS[C@H]2CCCCC(=O)*)N1

What was measured:
[1] = biological target: ICAM-1 (Intercellular Adhesion Molecule-1) (human) (UniProt P05362); assay: cell-based or functional assay
[2] = biological target: specific cell surface receptor of synovial cells (unidentified), on human RA synovial fibroblasts (human); assay: flow cytometry competition on synovial cells, unlabeled Fgn 2.5 mg for 3 h then labeled SAC[KBtn] 1 h; signal is of bound SAC[KBtn]
[3] = biological target: specific cell surface receptor of synovial cells (unidentified), on human RA synovial fibroblasts (human); assay: flow cytometry competition on synovial cells, unlabeled GPRP 2.5 mg for 3 h then labeled SAC[KBtn] 1 h; signal is of bound SAC[KBtn]
[4] = biological target: specific cell surface receptor of synovial cells (unidentified), on human RA synovial fibroblasts (human); assay: flow cytometry on RA #16 synovial fibroblasts, 200 ug peptide, avidin-FITC detection (avidin-FITC alone 13.71)
[5] = biological target: specific cell surface receptor of synovial cells (unidentified), on human RA synovial fibroblasts (human); assay: flow cytometry on RA #16 synovial fibroblasts, 100 ug peptide, avidin-FITC detection (avidin-FITC alone 3.6 %)
[6] = biological target: specific cell surface receptor of synovial cells (unidentified), on human RA synovial fibroblasts (human); assay: flow cytometry on RA #16 synovial fibroblasts, 200 ug peptide, avidin-FITC detection (avidin-FITC alone 3.6 %)
[7] = biological target: specific cell surface receptor of synovial cells (unidentified), on human RA synovial fibroblasts (human); assay: flow cytometry on RA #16 synovial fibroblasts, 100 ug peptide, avidin-FITC detection (avidin-FITC alone 13.71)
[8] = biological target: specific cell surface receptor of synovial cells (unidentified), on human RA synovial fibroblasts (human); assay: flow cytometry on synovial cells, SAC[KBtn] 1 h without competitor, avidin-FITC detection (avidin-FITC alone 20.16)
[9] = biological target: specific cell surface receptor of synovial cells (unidentified), on human RA synovial fibroblasts (human); assay: flow cytometry on RA #16 synovial fibroblasts, 100 ug control peptide, avidin-FITC detection (avidin-FITC alone 13.71)
[10] = biological target: specific cell surface receptor of synovial cells (unidentified), on human RA synovial fibroblasts (human); assay: flow cytometry on RA #16 synovial fibroblasts, 100 ug control peptide, avidin-FITC detection (avidin-FITC alone 3.6 %)
[11] = biological target: specific cell surface receptor of synovial cells (unidentified), on human RA synovial fibroblasts (human); assay: flow cytometry competition on synovial cells, unlabeled SAC 2.5 mg for 3 h then labeled SAC[KBtn] 1 h; signal is of bound SAC[KBtn]

Sequence of ICAM-1 (Intercellular Adhesion Molecule-1) (human) (P05362 28-532): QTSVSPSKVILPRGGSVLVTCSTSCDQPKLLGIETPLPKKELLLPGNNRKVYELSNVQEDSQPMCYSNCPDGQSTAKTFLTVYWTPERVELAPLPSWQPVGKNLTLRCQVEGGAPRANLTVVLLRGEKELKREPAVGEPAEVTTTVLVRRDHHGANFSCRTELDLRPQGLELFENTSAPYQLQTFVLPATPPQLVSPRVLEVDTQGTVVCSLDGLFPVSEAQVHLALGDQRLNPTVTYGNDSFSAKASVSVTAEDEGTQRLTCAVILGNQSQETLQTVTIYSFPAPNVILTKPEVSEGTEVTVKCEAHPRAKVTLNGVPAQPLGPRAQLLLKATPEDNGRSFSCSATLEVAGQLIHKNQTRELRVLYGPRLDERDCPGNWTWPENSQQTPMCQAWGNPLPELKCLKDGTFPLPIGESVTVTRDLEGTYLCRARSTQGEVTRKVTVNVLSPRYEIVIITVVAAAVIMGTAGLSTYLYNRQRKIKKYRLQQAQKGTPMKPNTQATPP

Molecule: T-cell LFA-1 (from UniProt P20701 26-1170; P05107 23-769) (receptor)
adherent T cell numbers, Foreskin line, GPRP 0.1 mg/ml [1]: 51 T cells
adherent T cell numbers, Foreskin line, GPRP 1 mg/ml [1]: 54 T cells
adherent T cell numbers, Foreskin line, IL-1 beta 1 ng/ml [1]: 94 T cells
adherent T cell numbers, Foreskin line, control [1]: 47 T cells
adherent T cell numbers, OA line 15, GPRP 0.1 mg/ml [1]: 92 T cells
adherent T cell numbers, OA line 15, GPRP 1 mg/ml [1]: 113 T cells
adherent T cell numbers, OA line 15, IL-1 beta 1 ng/ml [1]: 66 T cells
adherent T cell numbers, OA line 15, control [1]: 35 T cells
adherent T cell numbers, RA line 7, GPRP 0.1 mg/ml [1]: 184 T cells
adherent T cell numbers, RA line 7, GPRP 1 mg/ml [1]: 153 T cells
adherent T cell numbers, RA line 7, IL-1 beta 1 ng/ml [1]: 116 T cells
adherent T cell numbers, RA line 7, control [1]: 80 T cells
adherent T cell numbers, RA line 8, GPRP 0.1 mg/ml [1]: 99 T cells
adherent T cell numbers, RA line 8, GPRP 1 mg/ml [1]: 97 T cells
adherent T cell numbers, RA line 8, IL-1 beta 1 ng/ml [1]: 58 T cells
adherent T cell numbers, RA line 8, control [1]: 29 T cells

B2: biotinylated amino acid sequence 17-28 of human fibrinogen Aα chain, …[KBtn] (peptide)
peptide: GPRVVERHQSACK(Biotin)
Mean Fluorescent Channel [4]: 125
% Cells Positive [5]: 86.3%
% Cells Positive [6]: 80%
Mean Fluorescent Channel [7]: 258
Mean [8]: 51.2

B3: biotinylated control peptide …[KBtn] derived from the B/beta chain of fibrinogen following removal of Fibrinopeptide B (peptide)
peptide: GHRPLDKKREEK(Biotin)
Mean Fluorescent Channel [9]: 20.4
% Cells Positive [10]: 10.6%

Now from value to molecule:

Mean [2]: 21.6
Molecule: unlabeled fibrinogen (from UniProt P02671 20-629; P02675 31-491; P02679 27-437)

Mean [3]: 33.6
B1: synthetic tetrapeptide Gly-Pro-Arg-Pro (peptide)
peptide: H-GPRP-OH

Mean [11]: 36.3
B4: unlabeled … (peptide)
peptide: GPRVVERHQSAC
